Residue numbers refer to the chain shown, from its start.
T1: mouse claudin 18.2 (mCLDN18.2) (mouse, UniProt P56857 10-264)
T1 construct: the stomach-type (A2) isoform is meant; also called m hCLDN18.2; HEK293-mCLDN18.2
T1 chain: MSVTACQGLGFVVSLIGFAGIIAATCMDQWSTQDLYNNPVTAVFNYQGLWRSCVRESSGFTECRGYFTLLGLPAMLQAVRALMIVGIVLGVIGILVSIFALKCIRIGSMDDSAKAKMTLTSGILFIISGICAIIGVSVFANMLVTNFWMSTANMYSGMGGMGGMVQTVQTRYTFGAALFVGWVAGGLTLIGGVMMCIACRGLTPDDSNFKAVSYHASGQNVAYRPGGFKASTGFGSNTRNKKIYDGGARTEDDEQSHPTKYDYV

B1: 5-M9 human-mouse chimeric monoclonal antibody (antibody, human IgG1, V domains shown)
VH: QVQLKESGPVLVAPSQSLSITCTVSGFSLTTYGVQWVRQPPGKGLEWLGAIWAGGNTNYNSALMSRLSISKDNSKSQVFLKMNSLQTDDTAIYYCAKGGYGNAMDYWGQGTSVTVAS
VL: DIVMTQSPSSLTVTAGERVTMSCKSSQSLLNSGNQKNYLTWYQQKSGQPPKLLIYWASTRESGVPDRFTGSGSGTDFTLTISSVQAEDLAVYYCQNDYFFPFTFGSGTKLEIK
notes: Mouse V regions fused to human IgG1 (G1m17) heavy chain constant region and human kappa light chain constant region; also called 5-M9-A; Chi 5-M9
B2: 9-D1 human-mouse chimeric monoclonal antibody (antibody, human IgG1, V domains shown)
VH: EIQLQQSGAELVKPGASVKISCKASGYSFTDYHMNWVRQSHGKSLEWIGNIDPYYGSPTYNHKFKGKATLTVDKSSSTAYMQLISLTSEDSAVYYCANYGRGNSFPYWGQGTLVTVSA
VL: B1 VL with R18K, K36R, S46P, I54L, F99S
notes: Mouse V regions fused to human IgG1 (G1m17) heavy chain constant region and human kappa light chain constant region; also called 9-D1-A
B3: 163E12 human-mouse chimeric positive control antibody (antibody, V domains shown)
VH: QIQLVQSGPELKKPGETVKISCKASGYTFTNYGMNWVKQAPGKGLKWMGWINTNTGEPTYAEEFKGRFAFSLETSASTAYLQINNLKNEDTATYFCARLGFGNAMDYWGQGTSVTVSS
VL: DIVMTQSPSSLTVTAGEKVTMSCKSSQSLLNSGNQKNYLTWYQQKPGQPPKLLIYWASTRESGVPDRFTGSGSGTDFTLTISSVQAEDLAVYYCQNDYSYPLTFGAGTKLELKR
notes: Self-made, expressed in CHOS cells, Protein A purified; also called Benchmarker; Benchmark
B4: 175D10 human-mouse chimeric positive control antibody (antibody, V domains shown)
VH: QVQLQQPGAELVRPGASVKLSCKASGYTFTSYWINWVKQRPGQGLEWIGNIYPSDSYTNYNQKFKDKATLTVDKSSSTAYMQLSSPTSEDSAVYYCTRSWRGNSFDYWGQGTTLTVSS
VL: B3 VL with L102F, A106S, L112I
notes: Self-made, expressed in CHOS cells, Protein A purified; also called Benchmark
B5: h5M9v9 humanized antibody (h5M9 VHv3 / h5M9 VLv3) (antibody, V domains shown)
VH: QVQLKESGPGLVAPSETLSITCTVSGFSLTTYGVQWVRQPPGKGLEWLGAIWAGGNTNYNSALMSRLTISKDNSKSQVSLKMSSVTAADTAIYYCAKGGYGNAMDYWGQGTLVTVSS
VL: B1 VL with T12A, T14S, A15L, S22N, S46P
notes: Human IgG1 (G1m17) heavy and human kappa light constant regions
B6: h5M9V10 humanized antibody (h5M9 VHv4 / h5M9 VLv1) (antibody, human IgG1, kappa, V domains shown)
VH: B5 VH with V85L
VL: DIVMTQSPSSLAVSLGERATMNCKSSQSLLNSGNQKNYLTWYQQKPGQPPKLLIYWASTRESGVPDRFSGSGSGTDFTLTISSVQAEDLAVYYCQNDYFFPFTFGQGTKLEIKR
notes: Human IgG1 (G1m17) / kappa
B7: h5M9V7 humanized antibody (h5M9 VHv3 / h5M9 VLv1) (antibody, human IgG1, kappa, V domains shown)
VH: B5 VH
VL: B6 VL
notes: Human IgG1 (G1m17) / kappa
B8: h5M9V12 humanized antibody (h5M9 VHv4 / h5M9 VLv3) (antibody, human IgG1, kappa, V domains shown)
VH: B5 VH with V85L
VL: B6 VL with A19V, S69T, Q106S
notes: Human IgG1 (G1m17) / kappa

target: human claudin 18.2 (hCLDN18.2) (human); test: cell-based or functional assay

Row | Binder | EC50 | Maximum induction fold
1 | B1 | 0.000287 ng/mL | 40 fold
2 | B2 | 0.0074 ng/mL | 35 fold
3 | B3 | 0.0195 ng/mL | 36.3 fold

target: T2, human claudin 18.2 (hCLDN18.2) (human); test: flow cytometry on hCLDN18.2 low-expressing KATO III cells
T2 construct: also called CLDN18 splice variant 2; HEK293-hCLDN18.2
Experimental: (§1) The well-grown HEK293-hCLDN18.2 stably transfected cell line and the hCLDN18.2 low-expressing KATOIII human gastric cancer cell line sorted and enriched by flow cytometry were digested with trypsin, and resuspended to adjust the cell concentration to 1.5×10⁶˜2×10⁶/mL, added to a 96-well U-plate at 100 μL/well (150,000 to 200,000 cells/well). Washing once with PBS buffer containing 1% fetal bovine serum (FBS). The antibody solution (100 μL/well) with the test concentration prepared in PBS (+1% FBS) was added, mixed with the cells, and incubated at 4° C. for 1 hour. Cells were centrifuged at 200 g and washed once with PBS (+1% FBS). […] Cells were centrifuged at 200 g and washed twice with PBS (+1% FBS), then resuspended in 100 μL of PBS (+1% FBS) for flow cytometric analysis. […] In the study of the effect of heat treatment on the binding properties of antibodies, the antibody to be tested was heat-treated at 70° C. for 5 minutes on a PCR machine, and then incubated with cells for binding.

Row | Binder | EC50
4 | B4 | 800 ng/mL

Target: T1, mouse claudin 18.2 (mCLDN18.2)
Test: flow cytometry, HEK293-mCLDN18.2 cells, fixed and non-fixed

Row | Binder | binding result
5 | B3 | binds

target: T2, human claudin 18.2 (hCLDN18.2); test: flow cytometry on HEK293-hCLDN18.2 cells; 1 ug/mL; not heat treated
Experimental: as §1

Row | Binder | FACS binding signal (read-out unnamed)
6 | B1 | 341
7 | B5 | 291
8 | B4 | 318
9 | B6 | 316
10 | B7 | 296
11 | B8 | 419

target: T2, human claudin 18.2 (hCLDN18.2); test: flow cytometry on HEK293-hCLDN18.2 cells; 5 ug/mL; not heat treated
Experimental: as §1

Row | Binder | FACS binding signal (read-out unnamed)
12 | B1 | 638
13 | B5 | 589
14 | B4 | 567
15 | B6 | 599
16 | B7 | 631
17 | B8 | 589

target: T2, human claudin 18.2 (hCLDN18.2); test: flow cytometry on HEK293-hCLDN18.2 cells; 0.2 ug/mL; not heat treated
Experimental: as §1

Row | Binder | FACS binding signal (read-out unnamed)
18 | B1 | 83
19 | B5 | 66.8
20 | B4 | 81.3
21 | B6 | 73.7
22 | B7 | 84.3
23 | B8 | 103

target: T3, mouse claudin 18.1 (mCLDN18.1) (mouse, UniProt P56857 1-264); test: flow cytometry, HEK293-mCLDN18.1 cells, paraformaldehyde-fixed and non-fixed
T3 construct: the lung-type (A1) isoform is meant; also called HEK293-mCLDN18.1

Row | Binder | binding result
24 | B3 | no binding

target: T2, human claudin 18.2 (hCLDN18.2); test: flow cytometry (direct FACS binding, equilibrium at 4 C) on HEK293-hCLDN18.2 cells
Experimental: After resuscitation of HEK293 cells (HEK293-hCLDN18.2) stably expressing CLDN18.2, they were cultured and passaged until a certain number of cells were reached. The cells were distributed to 1 mL centrifuge tubes at a density of 5×10⁴/mL, and centrifuged for use. […] To eliminate ligand depletion effects (Ligand Depletion), antibody concentration series were prepared using PBS binding buffer diluted to the corresponding ligand depletion volume. HEK293-hCLDN18.2 cells were mixed and incubated with serial concentrations of antibodies formulated to the ligand elimination volume, and incubated at 4° C. until equilibrium.

Row | Binder | Kd
25 | B1 | 48 pM
26 | B2 | 49 pM
27 | B3 | 137 pM
28 | B4 | 189 pM

target: T2, human claudin 18.2 (hCLDN18.2); test: flow cytometry on HEK293-hCLDN18.2 cells; 1 ug/mL; antibody heat treated at 70 C for 5 min
Experimental: as §1

Row | Binder | FACS binding signal (read-out unnamed)
29 | B1 | 289
30 | B5 | 242
31 | B4 | 296
32 | B6 | 292
33 | B7 | 294
34 | B8 | 411

target: T2, human claudin 18.2 (hCLDN18.2); test: flow cytometry on HEK293-hCLDN18.2 cells; 5 ug/mL; antibody heat treated at 70 C for 5 min
Experimental: as §1

Row | Binder | FACS binding signal (read-out unnamed)
35 | B1 | 746
36 | B5 | 636
37 | B4 | 600
38 | B6 | 607
39 | B7 | 732
40 | B8 | 673

target: T2, human claudin 18.2 (hCLDN18.2); test: flow cytometry on HEK293-hCLDN18.2 cells; 0.2 ug/mL; antibody heat treated at 70 C for 5 min
Experimental: as §1

Row | Binder | FACS binding signal (read-out unnamed)
41 | B1 | 75.6
42 | B5 | 59.2
43 | B6 | 70.8
44 | B7 | 73.3
45 | B8 | 90

Source: US20230096452A1 (SHANGHAI ESCUGEN BIOTECHNOLOGY, published 2023)
